Article PMC4014428, “Enhanced Interaction between Pseudokinase and Kinase Domains in Gcn2 stimulates eIF2α Phosphorylation in Starved Cells” (PLoS Genetics, 2014)

Legend:
[1] = target: T1, HA epitope-tagged LexA fusion to a Gcn2 KD segment (residues 720–999) (S. cerevisiae, UniProt P15442 720-999); assay: co-IP; WCEs (50 µg protein) of gcn2Δ yeast HQY132 co-expressing LexA-HA-KD(720–999) and Gcn2 (WT or mutant) immunoprecipitated with anti-HA antibodies; blots with anti-Gcn2 and anti-LexA; pellet:input ratios of Gcn2 normalised to LexA-HA-KD in the pellet, three experiments; settings: partners not purified
T1 construct: the plasmid is PGAL-LexA-HA-GCN2 (720–999); also called HA-LexA-KD; LexA-HA-KD; source: yeast gcn2Δ strain HQY132, high-copy-number plasmid, in whole cell extract; not shown: LexA, N-terminal, kept; HA, N-terminal, kept

[2] = target: T1, HA epitope-tagged LexA fusion to a Gcn2 …; assay: co-IP; [35S]methionine-labelled in vitro translated YKD fragments incubated with 50 µg WCE of gcn2Δ yeast HQY132 expressing LexA-HA-KD(720–999); anti-HA agarose, 4°C 2 h, breaking buffer (50 mM Tris/HCl pH 7.5, 50 mM NaCl, 0.1% Triton, 1 mM DTT); SDS-PAGE and fluorography; pellet:input ratios normalised to WT YKD; settings: partners not purified

B1: Gcn2-ΔYKD (enzyme, S. cerevisiae, UniProt P15442 1-1659, looked up)
chain: MSLSHLTLDQYYEIQCNELEAIRSIYMDDFTDLTKRKSSWDKQPQIIFEITLRSVDKEPVESSITLHFAMTPMYPYTAPEIEFKNVQNVMDSQLQMLKSEFKKIHNTSRGQEIIFEITSFTQEKLDEFQNVVNTQSLEDDRLQRIKETKEQLEKEEREKQQETIKKRSDEQRRIDEIVQRELEKRQDDDDDLLFNRTTQLDLQPPSEWVASGEAIVFSKTIKAKLPNNSMFKFKAVVNPKPIKLTSDIFSFSKQFLVKPYIPPESPLADFLMSSEMMENFYYLLSEIELDNSYFNTSNGKKEIANLEKELETVLKAKHDNVNRNLVSESVNSNSLELTPGDTITVRGNGGRTLSQSSIRRRSFNVGSRFSSINPATRSRYASDFEEIAVLGQGAFGQVVKARNALDSRYYAIKKIRHTEEKLSTILSEVMLLASLNHQYVVRYYAAWLEEDSMDENVFESTDEESDLSESSSDFEENDLLDQSSIFKNRTNHDLDNSNWDFISGSGYPDIVFENSSRDDENEDLDHDTSSTSSSESQDDTDKESKSIQNVPRRRNFVKPMTAVKKKSTLFIQMEYCENRTLYDLIHSENLNQQRDEYWRLFRQILEALSYIHSQGIIHRDLKPMNIFIDESRNVKIGDFGLAKNVHRSLDILKLDSQNLPGSSDNLTSAIGTAMYVATEVLDGTGHYNEKIDMYSLGIIFFEMIYPFSTGMERVNILKKLRSVSIEFPPDFDDNKMKVEKKIIRLLIDHDPNKRPGARTLLNSGWLPVKHQDEVIKEALKSLSNPSSPWQQQVRESLFNQSYSLTNDILFDNSVPTSTPFANILRSQMTEEVVKIFRKHGGIENNAPPRIFPKAPIYGTQNVYEVLDKGGTVLQLQYDLTYPMARYLSKNPSLISKQYRMQHVYRPPDHSRSSLEPRKFGEIDFDIISKSSSESGFYDAESLKIIDEILTVFPVFEKTNTFFILNHADILESVFNFTNIDKAQRPLVSRMLSQVGFARSFKEVKNELKAQLNISSTALNDLELFDFRLDFEAAKKRLYKLMIDSPHLKKIEDSLSHISKVLSYLKPLEVARNVVISPLSNYNSAFYKGGIMFHAVYDDGSSRNMIAAGGRYDTLISFFARPSGKKSSNTRKAVGFNLAWETIFGIAQNYFKLASGNRIKKRNRFLKDTAVDWKPSRCDVLISSFSNSLLDTIGVTILNTLWKQNIKADMLRDCSSVDDVVTGAQQDGIDWILLIKQQAYPLTNHKRKYKPLKIKKLSTNVDIDLDLDEFLTLYQQETGNKSLINDSLTLGDKADEFKRWDENSSAGSSQEGDIDDVVAGSTNNQKVIYVPNMATRSKKANKREKWVYEDAARNSSNMILHNLSNAPIITVDALRDETLEIISITSLAQKEEWLRKVFGSGNNSTPRSFATSIYNNLSKEAHKGNRWAILYCHKTGKSSVIDLQR
notes: Gcn2, S. cerevisiae, otherwise full length, lacking the pseudokinase domain (YKD); also called gcn2-Δ324-538; source: yeast gcn2Δ strain HQY132, high-copy plasmid (p630 backbone), in whole cell extract
proportion co-immunoprecipitated relative to WT Gcn2 [1]: ~0.33 fraction of WT

B2: Gcn2 YKD fragment (230–604) L527I (domain or fragment, S. cerevisiae, UniProt P15442 230-604, looked up)
chain: MFKFKAVVNPKPIKLTSDIFSFSKQFLVKPYIPPESPLADFLMSSEMMENFYYLLSEIELDNSYFNTSNGKKEIANLEKELETVLKAKHDNVNRLFGYTVERMGRNNATFVWKIRLLTEYCNYYPLGDLIQSVGFVNLATARIWMIRLLEGLEAIHKLGIVHKCINLETVILVKDADFGSTIPKLVHSTYGYTVLNMLSRYPNKNGSSVELSPSTWIAPELLKFNNAKPQRLTDIWQLGVLFIQIISGSDIVMNFETPQEFLDSTSMDETLYDLLSKMLNNDPKKRLGTLELLPMKFIRTNIDSTINRFNLVSESVNSNSLELTPGDTITVRGNGGRTLSQSSIRRRSFNVGSRFSSINPATRSRYASDFEEIAV
modifications: [35S]-methionine-labeled
notes: Gcn2 YKD segment, S. cerevisiae, residues 230-604; also called L527I YKD fragment; source: in vitro translated (TNT T7 Coupled Reticulocyte Lysate System), partially purified by ammonium sulfate precipitation
level co-immunoprecipitated relative to WT YKD [2]: ~4 fold of WT

B3: Gcn2 YKD fragment (230–604) T518A/L527I (domain or fragment, S. cerevisiae, UniProt P15442 230-604, looked up)
chain: MFKFKAVVNPKPIKLTSDIFSFSKQFLVKPYIPPESPLADFLMSSEMMENFYYLLSEIELDNSYFNTSNGKKEIANLEKELETVLKAKHDNVNRLFGYTVERMGRNNATFVWKIRLLTEYCNYYPLGDLIQSVGFVNLATARIWMIRLLEGLEAIHKLGIVHKCINLETVILVKDADFGSTIPKLVHSTYGYTVLNMLSRYPNKNGSSVELSPSTWIAPELLKFNNAKPQRLTDIWQLGVLFIQIISGSDIVMNFETPQEFLDSTSMDETLYDLLSKMLNNDPKKRLGALELLPMKFIRTNIDSTINRFNLVSESVNSNSLELTPGDTITVRGNGGRTLSQSSIRRRSFNVGSRFSSINPATRSRYASDFEEIAV
modifications: [35S]-methionine-labeled
notes: Gcn2 YKD segment, S. cerevisiae, residues 230-604; also called T518A/L527I YKD fragment; source: in vitro translated (TNT T7 Coupled Reticulocyte Lysate System), partially purified by ammonium sulfate precipitation
level co-immunoprecipitated relative to WT YKD [2]: ~4 fold of WT

B4: Gcn2 YKD fragment (230–604) R528A (domain or fragment, S. cerevisiae, UniProt P15442 230-604, looked up)
chain: MFKFKAVVNPKPIKLTSDIFSFSKQFLVKPYIPPESPLADFLMSSEMMENFYYLLSEIELDNSYFNTSNGKKEIANLEKELETVLKAKHDNVNRLFGYTVERMGRNNATFVWKIRLLTEYCNYYPLGDLIQSVGFVNLATARIWMIRLLEGLEAIHKLGIVHKCINLETVILVKDADFGSTIPKLVHSTYGYTVLNMLSRYPNKNGSSVELSPSTWIAPELLKFNNAKPQRLTDIWQLGVLFIQIISGSDIVMNFETPQEFLDSTSMDETLYDLLSKMLNNDPKKRLGTLELLPMKFLATNIDSTINRFNLVSESVNSNSLELTPGDTITVRGNGGRTLSQSSIRRRSFNVGSRFSSINPATRSRYASDFEEIAV
modifications: [35S]-methionine-labeled
notes: Gcn2 YKD segment, S. cerevisiae, residues 230-604; also called R528A YKD fragment; source: in vitro translated (TNT T7 Coupled Reticulocyte Lysate System), partially purified by ammonium sulfate precipitation
level co-immunoprecipitated relative to WT YKD [2]: 60 % of WT
